Assay results: US20220041721A1 (WUHAN YZY BIOPHARMA, published 2022)

B1: Y150-F8-8 (bispecific antibody, human IgG1, kappa)
scFv: QVQLVESGGGVVQPGRSLRLSCAASGFTFSTYAMNWVRQAPGKGLEWVARIRSKYNNYATYYADSVKDRFTISRDDSKNTLYLQMNSLRAEDTAVYYCARHGNFGNSYVSWFAYWGQGTLVTVSSGGGGSGGGGSGGGGSQTVVTQEPSLTVSPGGTVTLTCRSSTGAVTTSNYANWVQQKPGQAPRGLIGGTNKRAPGVPARFSGSLLGGKAALTLSGVQPEDEAEYYCALWYSNLWVFGGGTKVEIKGRGRGSDKTHTCPPSPAPPVAGPSVFLFPPKPKDTLMISRTPEVTCVVVDVSHEDPEVQFNWYVDGVEVHNAKTKPREEQFNSTFRVVSVLTVVHQDWLNGKEYKCKVSNKGLPAPIEKTISKTKGQPREPQVCTLPPSRDELTKNQVSLSCAVKGFYPSDIAVEWESNGQPENNYKTTPPVLDSDGSFFLVSKLTVDKSRWQQGNVFSCSVMHEALHNHYTQKSLSLSPGK
heavy: EVQLLESGGGLVQPGGSLRLSCAVSGFTFNSFAMSWVRQAPGKGLEWVSAISGSGGGTYYADSVKGRFTISRDNSKNTLYLQMNSLRAEDTAVYFCAKDKILWFGEPVFDYWGQGTLVTVSSASTKGPSVFPLAPSSKSTSGGTAALGCLVKDYFPEPVTVSWNSGALTSGVHTFPAVLQSSGLYSLSSVVTVPSSSLGTQTYICNVNHKPSNTKVDKKVEPKSCDKTHTCPPSPAPPVAGPSVFLFPPKPKDTLMISRTPEVTCVVVDVSHEDPEVQFNWYVDGVEVHNAKTKPREEQFNSTFRVVSVLTVVHQDWLNGKEYKCKVSNKGLPAPIEKTISKTKGQPREPQVYTLPPCRDELTKNQVSLWCLVKGFYPSDIAVEWESNGQPENNYKTTPPVLDSDGSFFLYSKLTVDKSRWQQGNVFSCSVMHEALHNHYTQKSLSLSPGK
light: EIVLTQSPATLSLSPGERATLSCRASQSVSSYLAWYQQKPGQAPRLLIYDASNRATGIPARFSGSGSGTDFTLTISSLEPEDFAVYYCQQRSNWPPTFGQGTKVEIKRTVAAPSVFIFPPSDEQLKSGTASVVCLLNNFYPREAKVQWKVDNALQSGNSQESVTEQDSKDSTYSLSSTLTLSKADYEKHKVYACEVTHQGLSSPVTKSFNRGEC
notes: Anti-CD38 (Dara) Fab arm and anti-CD3 scFv (VH2a/VL5)-Fc fusion peptide, CH2 SG2
B2: CT-F3 (bispecific antibody, human IgG1, kappa)
scFv: EVQLVESGGGLVQPGGSLRLSCAASGFTFSTYAMNWVRQAPGKGLEWVARIRSKYNNYATYYADSVKDRFTISRDDSKNTLYLQMNSLRAEDTAVYYCARHGNFGNSYVSWFAYWGQGTMVTVSSGGGGSGGGGSGGGGSQAVVTQEPSLTVSPGGTVTLTCGSSTGAVTTSNYANWVQQKPGQAPRGLIGGTNKRAPGVPARFSGSLLGGKAALTLSGAQPEDEAEYYCALWYSNLWVFGGGTKLEIKGGGGSDKTHTCPPCPAPEFEGGPSVFLFPPKPKDTLMISRTPEVTCVVVDVSHEDPEVKFNWYVDGVEVHNAKTKPREEQYNSTYRVVSVLTVLHQDWLNGKEYKCKVSNKALPASIEKTISKAKGQPREPQVCTLPPSRDELTKNQVSLSCAVKGFYPSDIAVEWESNGQPENNYKTTPPVLDSDGSFFLVSKLTVDKSRWQQGNVFSCSVMHEALHNHYTQKSLSLSPGK
heavy: EVQLLESGGGLVQPGGSLRLSCAVSGFTFNSFAMSWVRQAPGKGLEWVSAISGSGGGTYYADSVKGRFTISRDNSKNTLYLQMNSLRAEDTAVYFCAKDKILWFGEPVFDYWGQGTLVTVSSASTKGPSVFPLAPSSKSTSGGTAALGCLVKDYFPEPVTVSWNSGALTSGVHTFPAVLQSSGLYSLSSVVTVPSSSLGTQTYICNVNHKPSNTKVDKKVEPKSCDKTHTCPPCPAPEFEGGPSVFLFPPKPKDTLMISRTPEVTCVVVDVSHEDPEVKFNWYVDGVEVHNAKTKPREEQYNSTYRVVSVLTVLHQDWLNGKEYKCKVSNKALPASIEKTISKAKGQPREPQVYTLPPCRDELTKNQVSLWCLVKGFYPSDIAVEWESNGQPENNYKTTPPVLDSDGSFFLYSKLTVDKSRWQQGNVFSCSVMHEALHNHYTQKSLSLSPGK
light: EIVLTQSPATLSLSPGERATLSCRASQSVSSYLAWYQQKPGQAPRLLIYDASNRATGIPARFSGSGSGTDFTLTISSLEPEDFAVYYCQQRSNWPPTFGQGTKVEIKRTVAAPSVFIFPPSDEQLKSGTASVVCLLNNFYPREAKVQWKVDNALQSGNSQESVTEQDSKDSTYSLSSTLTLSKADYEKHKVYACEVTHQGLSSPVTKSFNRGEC
notes: Comparative: anti-CD38 (Dara) Fab arm and anti-CD3 scFv (CD3 antibody 1 VH, CD3 antibody 2 VL)-Fc fusion peptide
B3: Y150-F8-7 (bispecific antibody, human IgG1, kappa, N297A)
scFv: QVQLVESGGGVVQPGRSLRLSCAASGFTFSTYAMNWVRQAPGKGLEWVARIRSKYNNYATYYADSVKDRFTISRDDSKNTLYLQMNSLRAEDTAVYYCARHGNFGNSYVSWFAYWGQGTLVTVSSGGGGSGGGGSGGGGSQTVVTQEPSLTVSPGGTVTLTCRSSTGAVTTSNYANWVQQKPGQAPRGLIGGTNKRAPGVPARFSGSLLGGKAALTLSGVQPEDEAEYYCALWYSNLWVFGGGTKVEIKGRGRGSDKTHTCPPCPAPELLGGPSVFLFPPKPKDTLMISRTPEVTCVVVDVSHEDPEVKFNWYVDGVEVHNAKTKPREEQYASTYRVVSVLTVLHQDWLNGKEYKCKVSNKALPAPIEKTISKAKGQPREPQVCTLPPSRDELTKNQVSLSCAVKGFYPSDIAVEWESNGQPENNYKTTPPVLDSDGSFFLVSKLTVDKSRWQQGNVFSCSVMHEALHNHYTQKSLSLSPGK
heavy: EVQLLESGGGLVQPGGSLRLSCAVSGFTFNSFAMSWVRQAPGKGLEWVSAISGSGGGTYYADSVKGRFTISRDNSKNTLYLQMNSLRAEDTAVYFCAKDKILWFGEPVFDYWGQGTLVTVSSASTKGPSVFPLAPSSKSTSGGTAALGCLVKDYFPEPVTVSWNSGALTSGVHTFPAVLQSSGLYSLSSVVTVPSSSLGTQTYICNVNHKPSNTKVDKKVEPKSCDKTHTCPPCPAPELLGGPSVFLFPPKPKDTLMISRTPEVTCVVVDVSHEDPEVKFNWYVDGVEVHNAKTKPREEQYASTYRVVSVLTVLHQDWLNGKEYKCKVSNKALPAPIEKTISKAKGQPREPQVYTLPPCRDELTKNQVSLWCLVKGFYPSDIAVEWESNGQPENNYKTTPPVLDSDGSFFLYSKLTVDKSRWQQGNVFSCSVMHEALHNHYTQKSLSLSPGK
light: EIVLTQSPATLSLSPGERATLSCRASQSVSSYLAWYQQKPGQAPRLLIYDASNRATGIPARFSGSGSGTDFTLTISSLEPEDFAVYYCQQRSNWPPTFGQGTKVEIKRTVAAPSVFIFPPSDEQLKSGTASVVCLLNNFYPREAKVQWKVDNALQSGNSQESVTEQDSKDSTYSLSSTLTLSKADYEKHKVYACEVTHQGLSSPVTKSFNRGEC
notes: Anti-CD38 (Dara) Fab arm and anti-CD3 scFv (VH2a/VL5)-Fc fusion peptide, CH2 N297A
B4: Y150-F8-6 (bispecific antibody, human IgG1, kappa)
scFv: QVQLVESGGGVVQPGRSLRLSCAASGFTFSTYAMNWVRQAPGKGLEWVARIRSKYNNYATYYADSVKDRFTISRDDSKNTLYLQMNSLRAEDTAVYYCVRHGNFGNSYVSWFAYWGQGTLVTVSSGGGGSGGGGSGGGGSQTVVTQEPSLTVSPGGTVTLTCRSSTGAVTTSNYANWVQQKPGQAPRGLIGGTNKRAPGVPARFSGSLLGGKAALTLSGVQPEDEAEYYCALWYSNLWVFGGGTKVEIKGGGGSDKTHTCPPCPAPEFEGGPSVFLFPPKPKDTLMISRTPEVTCVVVDVSHEDPEVKFNWYVDGVEVHNAKTKPREEQYNSTYRVVSVLTVLHQDWLNGKEYKCKVSNKALPASIEKTISKAKGQPREPQVCTLPPSRDELTKNQVSLSCAVKGFYPSDIAVEWESNGQPENNYKTTPPVLDSDGSFFLVSKLTVDKSRWQQGNVFSCSVMHEALHNHYTQKSLSLSPGK
heavy: EVQLLESGGGLVQPGGSLRLSCAVSGFTFNSFAMSWVRQAPGKGLEWVSAISGSGGGTYYADSVKGRFTISRDNSKNTLYLQMNSLRAEDTAVYFCAKDKILWFGEPVFDYWGQGTLVTVSSASTKGPSVFPLAPSSKSTSGGTAALGCLVKDYFPEPVTVSWNSGALTSGVHTFPAVLQSSGLYSLSSVVTVPSSSLGTQTYICNVNHKPSNTKVDKKVEPKSCDKTHTCPPCPAPEFEGGPSVFLFPPKPKDTLMISRTPEVTCVVVDVSHEDPEVKFNWYVDGVEVHNAKTKPREEQYNSTYRVVSVLTVLHQDWLNGKEYKCKVSNKALPASIEKTISKAKGQPREPQVYTLPPCRDELTKNQVSLWCLVKGFYPSDIAVEWESNGQPENNYKTTPPVLDSDGSFFLYSKLTVDKSRWQQGNVFSCSVMHEALHNHYTQKSLSLSPGK
light: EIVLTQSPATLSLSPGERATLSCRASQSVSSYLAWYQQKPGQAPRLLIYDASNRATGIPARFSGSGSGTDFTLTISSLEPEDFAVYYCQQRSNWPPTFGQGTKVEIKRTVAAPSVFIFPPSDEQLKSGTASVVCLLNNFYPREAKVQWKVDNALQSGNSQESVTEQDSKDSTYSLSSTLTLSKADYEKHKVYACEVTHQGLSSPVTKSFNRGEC
notes: also called Y150-8-6
B5: CT-F2 (bispecific antibody, human IgG1, kappa)
scFv: EVQLVESGGGLVQPGGSLRLSCAASGFTFNTYAMNWVRQAPGKGLEWVGRIRSKYNNYATYYADSVKGRFTISRDDSKNTLYLQMNSLRAEDTAVYYCARHGNFGNSYVSWFAYWGQGTLVTVSSGGGGSGGGGSGGGGSQAVVTQEPSLTVSPGGTVTLTCGSSTGAVTTSNYANWVQQKPGQAPRGLIGGTNKRAPGVPARFSGSLLGGKAALTLSGAQPEDEAEYYCALWYSNLWVFGGGTKLEIKGGGGSDKTHTCPPCPAPEFEGGPSVFLFPPKPKDTLMISRTPEVTCVVVDVSHEDPEVKFNWYVDGVEVHNAKTKPREEQYNSTYRVVSVLTVLHQDWLNGKEYKCKVSNKALPASIEKTISKAKGQPREPQVCTLPPSRDELTKNQVSLSCAVKGFYPSDIAVEWESNGQPENNYKTTPPVLDSDGSFFLVSKLTVDKSRWQQGNVFSCSVMHEALHNHYTQKSLSLSPGK
heavy: EVQLLESGGGLVQPGGSLRLSCAVSGFTFNSFAMSWVRQAPGKGLEWVSAISGSGGGTYYADSVKGRFTISRDNSKNTLYLQMNSLRAEDTAVYFCAKDKILWFGEPVFDYWGQGTLVTVSSASTKGPSVFPLAPSSKSTSGGTAALGCLVKDYFPEPVTVSWNSGALTSGVHTFPAVLQSSGLYSLSSVVTVPSSSLGTQTYICNVNHKPSNTKVDKKVEPKSCDKTHTCPPCPAPEFEGGPSVFLFPPKPKDTLMISRTPEVTCVVVDVSHEDPEVKFNWYVDGVEVHNAKTKPREEQYNSTYRVVSVLTVLHQDWLNGKEYKCKVSNKALPASIEKTISKAKGQPREPQVYTLPPCRDELTKNQVSLWCLVKGFYPSDIAVEWESNGQPENNYKTTPPVLDSDGSFFLYSKLTVDKSRWQQGNVFSCSVMHEALHNHYTQKSLSLSPGK
light: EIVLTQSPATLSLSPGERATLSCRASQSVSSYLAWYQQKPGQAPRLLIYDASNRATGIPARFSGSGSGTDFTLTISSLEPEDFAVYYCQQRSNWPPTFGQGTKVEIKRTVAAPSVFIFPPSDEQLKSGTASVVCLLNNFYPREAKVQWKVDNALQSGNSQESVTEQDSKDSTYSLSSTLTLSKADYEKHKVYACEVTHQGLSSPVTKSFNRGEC
notes: Comparative: anti-CD38 (Dara) Fab arm and anti-CD3 scFv (CD3 antibody 2 VH/VL)-Fc fusion peptide
B6: Y150-F8-5 (bispecific antibody, human IgG1, kappa)
scFv: QVQLVESGGGVVQPGRSLRLSCAASGFTFSTYAMNWVRQAPGKGLEWVARIRSKYNNYATYYADSVKDRFTISRDDSKNTLYLQMNSLRAEDTAVYYCARHGNFGNSYVSWFAYWGQGTLVTVSSGGGGSGGGGSGGGGSQTVVTQEPSLTVSPGGTVTLTCRSSTGAVTTSNYANWVQQKPGQAPRGLIGGTNKRAPGVPARFSGSLLGGKAALTLSGVQPEDEAEYYCALWYSNLWVFGGGTKVEIKGGGGSDKTHTCPPCPAPEFEGGPSVFLFPPKPKDTLMISRTPEVTCVVVDVSHEDPEVKFNWYVDGVEVHNAKTKPREEQYNSTYRVVSVLTVLHQDWLNGKEYKCKVSNKALPASIEKTISKAKGQPREPQVCTLPPSRDELTKNQVSLSCAVKGFYPSDIAVEWESNGQPENNYKTTPPVLDSDGSFFLVSKLTVDKSRWQQGNVFSCSVMHEALHNHYTQKSLSLSPGK
heavy: EVQLLESGGGLVQPGGSLRLSCAVSGFTFNSFAMSWVRQAPGKGLEWVSAISGSGGGTYYADSVKGRFTISRDNSKNTLYLQMNSLRAEDTAVYFCAKDKILWFGEPVFDYWGQGTLVTVSSASTKGPSVFPLAPSSKSTSGGTAALGCLVKDYFPEPVTVSWNSGALTSGVHTFPAVLQSSGLYSLSSVVTVPSSSLGTQTYICNVNHKPSNTKVDKKVEPKSCDKTHTCPPCPAPEFEGGPSVFLFPPKPKDTLMISRTPEVTCVVVDVSHEDPEVKFNWYVDGVEVHNAKTKPREEQYNSTYRVVSVLTVLHQDWLNGKEYKCKVSNKALPASIEKTISKAKGQPREPQVYTLPPCRDELTKNQVSLWCLVKGFYPSDIAVEWESNGQPENNYKTTPPVLDSDGSFFLYSKLTVDKSRWQQGNVFSCSVMHEALHNHYTQKSLSLSPGK
light: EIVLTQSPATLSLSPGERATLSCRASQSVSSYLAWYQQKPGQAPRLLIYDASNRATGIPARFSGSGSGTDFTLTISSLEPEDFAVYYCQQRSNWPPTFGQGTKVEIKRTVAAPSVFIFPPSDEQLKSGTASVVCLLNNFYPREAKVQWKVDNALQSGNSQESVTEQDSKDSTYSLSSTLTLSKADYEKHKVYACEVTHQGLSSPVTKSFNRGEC
notes: also called Y150-8-5
B7: CT-F1 (bispecific antibody, human IgG1, kappa)
scFv: EVQLVESGGGLVQPGGSLRLSCAASGFTFSTYAMNWVRQAPGKGLEWVARIRSKYNNYATYYADSVKDRFTISRDDSKNTLYLQMNSLRAEDTAVYYCARHGNFGNSYVSWFAYWGQGTMVTVSSGGGGSGGGGSGGGGSQAVVTQEPSLTVSPGGTVTLTCRSSTGAVTTSNYANWVQQKPGQAPRGLIGGTNKRAPGTPARFSGSLLGGKAALTLSGVQPEDEAEYYCALWYSNLWVFGGGTKLTVLGGGGSDKTHTCPPCPAPEFEGGPSVFLFPPKPKDTLMISRTPEVTCVVVDVSHEDPEVKFNWYVDGVEVHNAKTKPREEQYNSTYRVVSVLTVLHQDWLNGKEYKCKVSNKALPASIEKTISKAKGQPREPQVCTLPPSRDELTKNQVSLSCAVKGFYPSDIAVEWESNGQPENNYKTTPPVLDSDGSFFLVSKLTVDKSRWQQGNVFSCSVMHEALHNHYTQKSLSLSPGK
heavy: EVQLLESGGGLVQPGGSLRLSCAVSGFTFNSFAMSWVRQAPGKGLEWVSAISGSGGGTYYADSVKGRFTISRDNSKNTLYLQMNSLRAEDTAVYFCAKDKILWFGEPVFDYWGQGTLVTVSSASTKGPSVFPLAPSSKSTSGGTAALGCLVKDYFPEPVTVSWNSGALTSGVHTFPAVLQSSGLYSLSSVVTVPSSSLGTQTYICNVNHKPSNTKVDKKVEPKSCDKTHTCPPCPAPEFEGGPSVFLFPPKPKDTLMISRTPEVTCVVVDVSHEDPEVKFNWYVDGVEVHNAKTKPREEQYNSTYRVVSVLTVLHQDWLNGKEYKCKVSNKALPASIEKTISKAKGQPREPQVYTLPPCRDELTKNQVSLWCLVKGFYPSDIAVEWESNGQPENNYKTTPPVLDSDGSFFLYSKLTVDKSRWQQGNVFSCSVMHEALHNHYTQKSLSLSPGK
light: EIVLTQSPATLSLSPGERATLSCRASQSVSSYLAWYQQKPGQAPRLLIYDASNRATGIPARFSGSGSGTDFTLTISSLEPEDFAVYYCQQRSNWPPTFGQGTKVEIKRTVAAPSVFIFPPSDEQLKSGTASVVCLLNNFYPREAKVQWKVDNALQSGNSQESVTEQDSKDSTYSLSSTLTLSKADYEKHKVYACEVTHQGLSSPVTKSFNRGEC
notes: Comparative: anti-CD38 (Dara) Fab arm and anti-CD3 scFv (CD3 antibody 1 VH/VL)-Fc fusion peptide

molecular target: T1, monkey CD3 (monkey); test: flow cytometry on monkey CD3 positive T cells
T1 construct: whole, on cells; also called CD3 on monkey CD3 positive T cells

Binder | EC50 [nM]
B1 | 159
B2 | 229
B3 | 142
B4 | 29.2
B5 | 174
B6 | 291
B7 | 347
